B1: toripalimab Fab H.Y32A (Fab, V domains shown)
VH: QGQLVQSGAEVKKPGASVKVSCKASGYTFTDAEMHWVRQAPIHGLEWIGVIESETGGTAYNQKFKGRVTITADKSTSTAYMELSSLRSEDTAVYYCAREGITTVATTYYWYFDVWGQGTTVTVSS
VL: DVVMTQSPLSLPVTLGQPASISCRSSQSIVHSNGNTYLEWYLQKPGQSPQLLIYKVSNRFSGVPDRFSGSGSGTDFTLKISRVEAEDVGVYYCFQGSHVPLTFGQGTKLEIK
notes: heavy chain of Sm3 with this change; numbers count from the chain's first residue; as the light chain of Sm3; source: Brevibacillus, culture supernatant (ammonium sulfate precipitate); not shown: 6xHis, C-terminal, kept; 6xHN, C-terminal, kept
B2: toripalimab Fab H.G66A (Fab, V domains shown)
VH: QGQLVQSGAEVKKPGASVKVSCKASGYTFTDYEMHWVRQAPIHGLEWIGVIESETGGTAYNQKFKARVTITADKSTSTAYMELSSLRSEDTAVYYCAREGITTVATTYYWYFDVWGQGTTVTVSS
VL: DVVMTQSPLSLPVTLGQPASISCRSSQSIVHSNGNTYLEWYLQKPGQSPQLLIYKVSNRFSGVPDRFSGSGSGTDFTLKISRVEAEDVGVYYCFQGSHVPLTFGQGTKLEIK
notes: as for B1
B3: toripalimab Fab H.T106Y (Fab, V domains shown)
VH: QGQLVQSGAEVKKPGASVKVSCKASGYTFTDYEMHWVRQAPIHGLEWIGVIESETGGTAYNQKFKGRVTITADKSTSTAYMELSSLRSEDTAVYYCAREGITTVAYTYYWYFDVWGQGTTVTVSS
VL: DVVMTQSPLSLPVTLGQPASISCRSSQSIVHSNGNTYLEWYLQKPGQSPQLLIYKVSNRFSGVPDRFSGSGSGTDFTLKISRVEAEDVGVYYCFQGSHVPLTFGQGTKLEIK
notes: as for B1
B4: toripalimab Fab H.E33A (Fab, V domains shown)
VH: QGQLVQSGAEVKKPGASVKVSCKASGYTFTDYAMHWVRQAPIHGLEWIGVIESETGGTAYNQKFKGRVTITADKSTSTAYMELSSLRSEDTAVYYCAREGITTVATTYYWYFDVWGQGTTVTVSS
VL: DVVMTQSPLSLPVTLGQPASISCRSSQSIVHSNGNTYLEWYLQKPGQSPQLLIYKVSNRFSGVPDRFSGSGSGTDFTLKISRVEAEDVGVYYCFQGSHVPLTFGQGTKLEIK
notes: as for B1
B5: toripalimab Fab H.K65A (Fab, V domains shown)
VH: QGQLVQSGAEVKKPGASVKVSCKASGYTFTDYEMHWVRQAPIHGLEWIGVIESETGGTAYNQKFAGRVTITADKSTSTAYMELSSLRSEDTAVYYCAREGITTVATTYYWYFDVWGQGTTVTVSS
VL: DVVMTQSPLSLPVTLGQPASISCRSSQSIVHSNGNTYLEWYLQKPGQSPQLLIYKVSNRFSGVPDRFSGSGSGTDFTLKISRVEAEDVGVYYCFQGSHVPLTFGQGTKLEIK
notes: as for B1
B6: toripalimab Fab H.F64Y (Fab, V domains shown)
VH: QGQLVQSGAEVKKPGASVKVSCKASGYTFTDYEMHWVRQAPIHGLEWIGVIESETGGTAYNQKYKGRVTITADKSTSTAYMELSSLRSEDTAVYYCAREGITTVATTYYWYFDVWGQGTTVTVSS
VL: DVVMTQSPLSLPVTLGQPASISCRSSQSIVHSNGNTYLEWYLQKPGQSPQLLIYKVSNRFSGVPDRFSGSGSGTDFTLKISRVEAEDVGVYYCFQGSHVPLTFGQGTKLEIK
notes: as for B1
B7: toripalimab Fab H.V104A (Fab, V domains shown)
VH: QGQLVQSGAEVKKPGASVKVSCKASGYTFTDYEMHWVRQAPIHGLEWIGVIESETGGTAYNQKFKGRVTITADKSTSTAYMELSSLRSEDTAVYYCAREGITTAATTYYWYFDVWGQGTTVTVSS
VL: DVVMTQSPLSLPVTLGQPASISCRSSQSIVHSNGNTYLEWYLQKPGQSPQLLIYKVSNRFSGVPDRFSGSGSGTDFTLKISRVEAEDVGVYYCFQGSHVPLTFGQGTKLEIK
notes: as for B1

How the values were obtained:
[1] = target: T1, mouse programmed cell death protein 1 Fc fusion protein (mPD-1-Fc), mPD-1 C60S (aa 25-167) (Mus musculus, UniProt Q02242, stabilised); test: SPR; Carterra LSA; Fab from the ammonium sulfate precipitate of the culture supernatant immobilised on a NiHC200M chip; hPD-1 (1-1024 nM) or mPD-1-Fc (4-1024 nM) as analyte, fourfold dilution series, no regeneration; HBS-EP pH 7.4, 25 °C; medians over the spots of a construct, KD = koff/kon; details: one partner purified
T1 construct: not cleaved; source: Expi293F, purified (Protein A, SEC; dimeric fraction); not shown: Fc (human), C-terminal, kept
Method in brief: (§1)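 Fabs, ammonium sulfate-precipitated from Brevibacillus supernatants and redissolved in HBS-EP, were captured in duplicate on a NiHC200M chip on a Carterra LSA at 25 °C. Fourfold series of human PD-1 (1–1024 nM) or mouse PD-1-Fc (4–1024 nM) were run without regeneration, with association for 10 min and dissociation for 5 min. Rates were fitted with the kdka model, choosing the better of slow- or fast-dissociation settings, and unconfirmed binders were given kon 10^3 […] and koff 10^−2 s^−1. The dissociation constant KD is koff/kon based on per-construct medians.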

[2] = target: T2, human programmed cell death protein 1 (hPD-1) C93S (aa 24-167) (Homo sapiens, UniProt Q15116, C93S); test: as above; details: one partner purified
T2 construct: made as a fusion with a TEV site and human Fc; the Fc was cut off with TEV protease; source: Expi293F, purified (Protein A, TEV cleavage of Fc, SEC; monomer fractions); not shown: Fc (human), C-terminal, cleaved
Method in brief: as §1

T2 sequence (Q15116 24-167 C93S): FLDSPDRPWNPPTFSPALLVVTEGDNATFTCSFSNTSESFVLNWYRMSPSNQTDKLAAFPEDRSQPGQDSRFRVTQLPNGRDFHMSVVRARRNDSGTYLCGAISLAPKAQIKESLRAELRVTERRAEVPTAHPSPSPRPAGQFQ

Binder | Kd [1] | koff [1] | kon [1] | Kd [2] | koff [2] | kon [2]
B1 | 1310 nM | 0.0613 s⁻¹ | 46900 M⁻¹ s⁻¹ | 4.68 nM | 7.41e-05 s⁻¹ | 15800 M⁻¹ s⁻¹
B2 | 223 nM | 0.00674 s⁻¹ | 30200 M⁻¹ s⁻¹ | < 1.56 nM | < 1e-05 s⁻¹ | 6410 M⁻¹ s⁻¹
B3 | 140 nM | 0.00601 s⁻¹ | 43000 M⁻¹ s⁻¹ | 0.833 nM | 1.75e-05 s⁻¹ | 21000 M⁻¹ s⁻¹
B4 | 103 nM | 0.00372 s⁻¹ | 36200 M⁻¹ s⁻¹ | 1.37 nM | 1.31e-05 s⁻¹ | 9540 M⁻¹ s⁻¹
B5 | 257 nM | 0.00911 s⁻¹ | 35400 M⁻¹ s⁻¹ | < 1.5 nM | < 1e-05 s⁻¹ | 6670 M⁻¹ s⁻¹
B6 | 36.3 nM | 0.00224 s⁻¹ | 61600 M⁻¹ s⁻¹ | 1.17 nM | 3.98e-05 s⁻¹ | 34200 M⁻¹ s⁻¹
B7 | 81.5 nM | 0.00354 s⁻¹ | 43400 M⁻¹ s⁻¹ | 4.51 nM | 8.98e-05 s⁻¹ | 19900 M⁻¹ s⁻¹
